Data set [1] addresses T1, hnRNPA1 (UniProt P09651 1-251+304-372, internal_change). Nature of the data set: CD; peak shift 265 to 260 nm on protein addition; Na+; EMSA: 10 mM Tris-HCl pH 7.0, 100 mM NaCl, 0.1 mg/mL BSA, 5 mM DTT, 10% glycerol, 30 min room temperature; 8% native PAGE, 1x TBE + 20 mM NaCl, 80 V, 4 C. The following applies: protein: recombinant; (pET-15b, Ni-NTA); label: 32P (T4 PNK, 5'); intermolecular dimeric parallel G-quadruplex, 2 strands. (In general: In EMSA bound probe runs differently from free probe, usually more slowly.)

The target in data set [2] is T1, hnRNPA1. The data set is described as follows: EMSA; 100 mM Na+; EMSA: 10 mM Tris-HCl pH 7.0, 100 mM NaCl, 0.1 mg/mL BSA, 5 mM DTT, 10% glycerol, 30 min room temperature; 8% native PAGE, 1x TBE + 20 mM NaCl, 80 V, 4 C. The following applies: protein: recombinant; (pET-15b, Ni-NTA); label: 32P (T4 PNK, 5'); intermolecular dimeric parallel G-quadruplex, 2 strands.

This note sets out measurements from paper PMC6017123, “HnRNPA1 Specifically Recognizes the Base of Nucleotide at the Loop of RNA G-Quadruplex”.

T1 sequence (P09651 other isoform, or with tags, fused parts or gaps): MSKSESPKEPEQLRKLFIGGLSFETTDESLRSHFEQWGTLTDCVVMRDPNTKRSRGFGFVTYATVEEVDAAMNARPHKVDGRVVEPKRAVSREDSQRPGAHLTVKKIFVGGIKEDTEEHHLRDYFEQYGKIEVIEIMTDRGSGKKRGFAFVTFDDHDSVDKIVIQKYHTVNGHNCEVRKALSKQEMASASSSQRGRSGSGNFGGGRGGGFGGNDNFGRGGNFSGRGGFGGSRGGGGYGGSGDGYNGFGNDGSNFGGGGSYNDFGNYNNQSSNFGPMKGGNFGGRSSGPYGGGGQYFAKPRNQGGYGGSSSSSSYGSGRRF

As to UUAGGGUUAGGG (XNA, 2'-O-methyl at positions 7-9 (UmUmAm)) [2'-O-Me-loop-Gq], the binding result with hnRNPA1 [1] is given as “binds”.
As to UUAGGGUUAGGG (structured_RNA) [Native-RNA-Gq], in the data set with hnRNPA1 [2], the binding result was “binds”.
